Measurements as given in patent US20230183289A1 (ANPEP, published 2023).

Target: elastase (type I: derived from porcine pancreas, Sigma Aldrich) (porcine, UniProt P00772 27-266)
Assay: cell-based or functional assay

elastase (type I: derived from porcine pancreas, Sigma Aldrich), sequence (P00772 27-266 limits assumed): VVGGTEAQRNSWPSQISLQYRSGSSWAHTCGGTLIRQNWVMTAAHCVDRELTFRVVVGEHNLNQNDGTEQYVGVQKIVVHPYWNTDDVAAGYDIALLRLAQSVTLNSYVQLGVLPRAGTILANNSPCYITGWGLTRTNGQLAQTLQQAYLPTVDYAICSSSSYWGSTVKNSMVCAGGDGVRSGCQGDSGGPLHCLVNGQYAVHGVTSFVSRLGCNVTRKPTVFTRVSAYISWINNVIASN

Elastase Inhibition Rate (%)	Binder
77.2%	CAPQ [Sample 14 tetrapeptide CAPQ]
60.5%	QLKY [Sample 35 tetrapeptide QLKY]
56%	GQLK [Sample 27 tetrapeptide GQLK]
47.4%	CFSS [Sample 21 tetrapeptide CFSS]
59.3%	TKGE [Sample 38 tetrapeptide TKGE]
58.3%	GSSG [Sample 19 tetrapeptide GSSG]
90.5%	ELPE [Sample 24 tetrapeptide ELPE]
77%	SSGG [Sample 17 tetrapeptide SSGG]
70.6%	LEVP [Sample 31 tetrapeptide LEVP]
49.5%	EVQW [Sample 42 tetrapeptide EVQW]
55.7%	VEHQ [Sample 40 tetrapeptide VEHQ]
56.3%	GSGY [Sample 9 tetrapeptide GSGY]
60.7%	VLLP [Sample 39 tetrapeptide VLLP]
78.5%	GYVS [Sample 11 tetrapeptide GYVS]
49.6%	SGGS [Sample 8 tetrapeptide SGGS]
64%	PEEQ [Sample 32 tetrapeptide PEEQ]
34.5%	GQDP [Sample 34 tetrapeptide GQDP]
73.2%	GQLE [Sample 23 tetrapeptide GQLE]
78.2%	LELP [Sample 26 tetrapeptide LELP]
66.3%	VKTS [Sample 6 tetrapeptide VKTS]

Elastase Inhibition Rate (%)	Binder
55.2%	GCFS [Sample 20 tetrapeptide GCFS]
63.5%	QPSY [Sample 15 tetrapeptide QPSY]
72.3%	YLEQ [Sample 36 tetrapeptide YLEQ]
33.9%	GQVS [Sample 10 tetrapeptide GQVS]
118%	DCVK [Sample 5 tetrapeptide DCVK]
49.3%	SQQV [Sample 12 tetrapeptide SQQV]
79.4%	MSYQ [Sample 1 tetrapeptide MSYQ]
44.5%	KTSG [Sample 7 tetrapeptide KTSG]
72.5%	PPVD [Sample 4 tetrapeptide PPVD]
69.3%	PTPQ [Sample 3 tetrapeptide PTPQ]
104%	GGSG [Sample 18 tetrapeptide GGSG]
69.1%	FSSG [Sample 22 tetrapeptide FSSG]
59%	TQTS [Sample 13 tetrapeptide TQTS]
67.1%	YGGG [Sample 16 tetrapeptide YGGG]
88.7%	QKKQ [Sample 2 tetrapeptide QKKQ]
69.7%	EGQL [Sample 30 tetrapeptide EGQL]
79.3%	KHLE [Sample 28 tetrapeptide KHLE]
72.3%	QQKQ [Sample 41 tetrapeptide QQKQ]
66.3%	EHQE [Sample 29 tetrapeptide EHQE]
55.6%	QMGQ [Sample 33 tetrapeptide QMGQ]
